Experimental data reported in paper PMC11814294, “A pathogen effector HaRxL10 hijacks the circadian clock component CHE to perturb both plant development and immunity”.

Molecular target: GST-CHE (Arabidopsis thaliana, UniProt Q9FTA2 1-239)
Assay: EMSA; 5 pmol protein, 50 fmol probe; no HaRxL10; LightShift Chemiluminescent EMSA Kit per manufacturer; 5 pmol protein, 50 fmol biotin probe, 200-fold unlabelled competitor; probes annealed in 10 mM Tris, 1 mM Na2EDTA, 50 mM NaCl; binding buffer, pH and temperature not stated
Conditions: protein: recombinant; tags: GST (pET-42a); chain copies: 2; label: 5'-biotin; blunt

GST-CHE, sequence (Q9FTA2 whole entry): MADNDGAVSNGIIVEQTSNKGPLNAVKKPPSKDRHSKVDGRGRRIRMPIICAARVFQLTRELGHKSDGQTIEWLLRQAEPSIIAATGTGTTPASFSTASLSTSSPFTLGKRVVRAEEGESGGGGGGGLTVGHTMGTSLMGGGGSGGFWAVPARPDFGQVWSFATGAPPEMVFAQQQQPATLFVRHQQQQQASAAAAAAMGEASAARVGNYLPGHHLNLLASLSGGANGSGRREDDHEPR

B1: TBS probe (dsDNA)
DNA 1: GTAGGTCCCACTAGGTAGGTCCCACTAGGTAGGTCCCACTAGGTAGGTCCCACTAGGTAGGTCCCACTAG
DNA 2: CTAGTGGGACCTACCTAGTGGGACCTACCTAGTGGGACCTACCTAGTGGGACCTACCTAGTGGGACCTAC
binding result: binds
